Measurements from IntAct's records for PubMed 15975580.

Target: zo2_human TJP2 (UniProt Q9UDY2)
Sequence (Q9UDY2 whole entry): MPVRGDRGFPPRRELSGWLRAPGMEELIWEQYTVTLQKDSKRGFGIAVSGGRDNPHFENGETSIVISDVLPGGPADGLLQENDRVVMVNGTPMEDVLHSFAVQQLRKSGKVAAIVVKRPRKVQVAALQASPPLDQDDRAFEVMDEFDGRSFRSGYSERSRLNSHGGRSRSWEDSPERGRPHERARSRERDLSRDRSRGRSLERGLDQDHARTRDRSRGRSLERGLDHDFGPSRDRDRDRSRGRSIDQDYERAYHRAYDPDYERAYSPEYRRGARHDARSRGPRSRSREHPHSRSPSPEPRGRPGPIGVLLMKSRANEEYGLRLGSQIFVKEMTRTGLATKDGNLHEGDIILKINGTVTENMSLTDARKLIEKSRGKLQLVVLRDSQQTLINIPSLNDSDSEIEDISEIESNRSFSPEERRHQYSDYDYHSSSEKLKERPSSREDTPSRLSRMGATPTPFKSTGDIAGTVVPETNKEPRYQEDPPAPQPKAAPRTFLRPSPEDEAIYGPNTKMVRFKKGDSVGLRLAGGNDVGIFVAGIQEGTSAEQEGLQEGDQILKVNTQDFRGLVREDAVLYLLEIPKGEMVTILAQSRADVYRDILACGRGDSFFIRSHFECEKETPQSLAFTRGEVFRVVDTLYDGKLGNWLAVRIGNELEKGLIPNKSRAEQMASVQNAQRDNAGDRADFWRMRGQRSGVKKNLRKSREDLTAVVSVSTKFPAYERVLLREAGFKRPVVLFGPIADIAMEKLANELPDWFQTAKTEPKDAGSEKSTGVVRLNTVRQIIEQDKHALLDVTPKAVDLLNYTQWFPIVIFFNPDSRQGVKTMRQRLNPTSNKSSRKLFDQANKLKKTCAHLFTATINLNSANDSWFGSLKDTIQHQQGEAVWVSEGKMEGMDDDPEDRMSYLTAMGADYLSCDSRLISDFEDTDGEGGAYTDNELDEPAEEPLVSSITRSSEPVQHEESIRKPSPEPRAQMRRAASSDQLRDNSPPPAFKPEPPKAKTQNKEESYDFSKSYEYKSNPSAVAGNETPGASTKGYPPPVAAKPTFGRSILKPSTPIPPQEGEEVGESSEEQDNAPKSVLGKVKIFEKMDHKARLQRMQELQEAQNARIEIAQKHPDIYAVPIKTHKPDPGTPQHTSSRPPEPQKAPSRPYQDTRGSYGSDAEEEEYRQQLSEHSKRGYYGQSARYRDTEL

Sequence of Protein scribble homolog (Homo sapiens), Q14160-1 P305L (Q14160 other isoform, or with tags, fused parts or gaps P305L): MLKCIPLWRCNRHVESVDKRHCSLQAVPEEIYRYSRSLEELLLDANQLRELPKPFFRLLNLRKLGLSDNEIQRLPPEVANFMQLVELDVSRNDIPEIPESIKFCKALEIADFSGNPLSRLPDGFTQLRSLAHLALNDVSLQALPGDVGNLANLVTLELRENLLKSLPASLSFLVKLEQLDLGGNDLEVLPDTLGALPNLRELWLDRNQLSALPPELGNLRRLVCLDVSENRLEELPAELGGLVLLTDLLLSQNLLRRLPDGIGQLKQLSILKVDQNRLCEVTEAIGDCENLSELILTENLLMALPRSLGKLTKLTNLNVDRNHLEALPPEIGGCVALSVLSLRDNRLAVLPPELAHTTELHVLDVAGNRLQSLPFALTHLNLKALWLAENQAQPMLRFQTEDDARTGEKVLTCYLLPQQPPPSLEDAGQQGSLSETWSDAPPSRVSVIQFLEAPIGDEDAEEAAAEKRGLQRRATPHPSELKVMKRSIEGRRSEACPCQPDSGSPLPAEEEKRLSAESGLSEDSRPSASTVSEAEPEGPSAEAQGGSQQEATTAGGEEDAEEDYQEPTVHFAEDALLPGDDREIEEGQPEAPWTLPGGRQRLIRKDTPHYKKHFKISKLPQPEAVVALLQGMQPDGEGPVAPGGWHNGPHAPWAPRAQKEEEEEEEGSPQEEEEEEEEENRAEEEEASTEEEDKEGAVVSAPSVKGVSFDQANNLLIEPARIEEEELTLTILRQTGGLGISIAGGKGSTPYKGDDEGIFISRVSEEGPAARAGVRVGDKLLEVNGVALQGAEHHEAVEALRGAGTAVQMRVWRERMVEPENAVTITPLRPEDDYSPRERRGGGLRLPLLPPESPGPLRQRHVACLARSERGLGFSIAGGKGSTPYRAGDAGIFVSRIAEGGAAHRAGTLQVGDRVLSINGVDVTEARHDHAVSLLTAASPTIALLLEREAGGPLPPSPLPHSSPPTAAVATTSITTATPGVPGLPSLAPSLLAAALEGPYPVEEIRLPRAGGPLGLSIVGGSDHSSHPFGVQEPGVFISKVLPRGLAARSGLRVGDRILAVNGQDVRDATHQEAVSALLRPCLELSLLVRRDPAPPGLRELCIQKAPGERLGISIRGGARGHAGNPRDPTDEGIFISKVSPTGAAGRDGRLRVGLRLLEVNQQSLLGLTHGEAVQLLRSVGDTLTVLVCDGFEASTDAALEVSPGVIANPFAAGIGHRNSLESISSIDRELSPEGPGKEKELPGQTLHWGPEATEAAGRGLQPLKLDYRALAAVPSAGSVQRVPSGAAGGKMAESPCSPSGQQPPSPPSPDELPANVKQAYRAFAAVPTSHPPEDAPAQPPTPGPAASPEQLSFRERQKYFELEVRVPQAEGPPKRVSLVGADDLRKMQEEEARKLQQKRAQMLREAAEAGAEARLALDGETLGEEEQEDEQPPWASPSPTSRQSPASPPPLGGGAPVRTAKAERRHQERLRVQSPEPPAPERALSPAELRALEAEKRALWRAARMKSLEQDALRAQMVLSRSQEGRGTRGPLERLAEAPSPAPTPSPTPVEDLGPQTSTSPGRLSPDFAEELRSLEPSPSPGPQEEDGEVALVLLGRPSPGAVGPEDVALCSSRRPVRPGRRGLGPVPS

Substance: Protein scribble homolog (Homo sapiens), Q14160-1 P305L
- effect of a mutation on the interaction: decreasing interaction
